US20090163594A1, “Triple Assay System for Identifying Substrate Selectivity of Gamma Secretase Inhibitors” (ELAN PHARMACEUTICALS, INC., priority 2007, published 2009)

Assays:
[1] = biological target: T1, gamma secretase, APP γ and ε cleavage (Homo sapiens, UniProt P49768); experiment: Aβ and AICD ELISA, Fas-APPsw-DD transfected 293 cells; type: cell-based
T1 construct: endogenous in cells; host or cells: 293 cells transfected with Fas-APPsw-DD
Experimental: (§1) ELISAs used to quantify different Aβ species were performed using standard techniques as described above and in (Johnson-Wood, K., et al., Proc. Natl. Acad. Sci. U.S.A., 1997; 94: 1550-1555, incorporated by reference). The Aβ40 and Aβ42 peptides in the samples were captured onto 2G3 or 21F12 antibody coated plates, respectively, and detected with a biotinylated 2H3 antibody. The fluorescence signal generated from a streptavidin-alkaline phosphatase conjugate (Roche) was measured with a CytoFlour microplate reader (Applied Biosystems). Synthetic Aβ40 or Aβ42 peptides (Anaspec) were used to generate standard curves (FIG. 10). All measurements were done in triplicate.
An AICD sandwich ELISA was established based on capture of cell lysates with any of the AICD polyclonal or monoclonal antibodies discussed above, and reporting back with antibody directed at the extreme C-terminus of APP (e.g., 13G8, prepared in-house). Alternatively, luciferase-based reporter assays can be used to detect and quantify the presence of AICD and correlate those numbers to inhibitory potency of known or potential gamma secretase inhibitor compounds.
Polyclonal antibody AICD ELISA. HEK 293 cells were grown under standard conditions to ˜90% confluence. Cells were harvested, counted, and subsequently plated onto PDL-coated 60 mm dishes at 2×10^6 cells/dish in 5 mL media. […]

[2] = biological target: T2, gamma secretase, AICD-GVP generated from C99-GVP (Homo sapiens, UniProt P49768); experiment: Luciferase reporter gene assay, HEK293 cells transfected with C99GVP; type: cell-based; details: dose-dependent, FIG. 5C
T2 construct: endogenous in cells
Experimental: Inhibitor Treatment of Transfected HEK Cell: The transition state analogue gamma secretase inhibitor-L685,458 (Sigma) and the peptidomimetic inhibitor-DAPT (Dovey, H. F., et al., J Neurochem., 2001; 76:173-181) were dissolved in DMSO to make 20 mM stocks. Similarly, a number of Elan's series of sulfonamide inhibitors were prepared and used as described herein (see, also FIGS. 11-14). Inhibitors were added to cell cultures (e.g., HEK) at the indicated final concentration, and the treated cells were harvested 48 h post-transfection. The metallo-proteinase inhibitor TAPI-1 (Calbiochem) was used at a final concentration of 40 μM. The Aβ-degrading enzyme inhibitors, Bacitracin (Calbiochem) and phosphoramidon (Calbiochem) were used at final concentration of 1 mg/ml and 40 μM, respectively. […]
Luciferase Reporter Gene Assay: Luciferase reporter assays were carried out 48 hr post-transfection. […] After adding 100 μl of luminescent substrate (Promega), the luciferase activity was measured with a MicroLumatPlus microplate luminometer (Berthold Technologies). The P-galactosidase activity was measured similarly, using a luminescent β-galactosidase substrate (BD Biosciences). […]
Luciferase Assay. […] Some residual luciferase activity remained in the presence of excess gamma secretase inhibitors, even though identical treatment completely abolished AICD production as measured by Western blot (FIG. 5B).

[3] = biological target: T3, gamma secretase, gamma cleavage (secreted Aβ) (Homo sapiens, UniProt P49768); experiment: Aβ ELISA and IP/Western blot of conditioned media, HEK cells transfected with C99GVP constructs; type: cell-based; design: secreted Aβ42: unit not given here; details: for secreted Aβ (Ab40, Ab42, total): 5 μM, 24 h, C99GVP transfectants, FIG. 5D; for Aβ-lowering potency with C99GVP compared with native substrate APP: FIG. 5E; for drop of Aβ40: Aβ40 ELISA, FIG. 9C; for reduction in total Aβ: IP/Western blot, FIG. 9B; for effect on secreted Aβ / Aβ production: words
T3 construct: endogenous in cells; host or cells: HEK 293, transiently transfected with substrate plasmids
Experimental: AICD neo-epitope antibodies were raised against the peptide VMLKKKC (SEQ ID NO:39). […] (FIGS. 15 and 16). P Cell Culture and Transient Transfection: Human embryonic kidney 293 (HEK 293) cells (ATCC) were grown in Dulbecco's Modified Eagle Medium with High Glucose (DMEM, obtained from Gibco/Invitrogen, Cat #11960) supplemented with 10% fetal bovine serum (Hyclone, SV 30014.03) and 50 units/ml penicillin and streptomycin (37° C., 5% CO2). Cells were used at less than passage number 30. At the time of seeding, viability of cells was greater than 95% as determined using a Vi-Cell Analyzer (Beckman-Coulter). Confluence of cells on plates was kept at greater than 95% during all phases of the experiment as determined with a standard tissue culture inverted microscope. All transfections were carried out on 5×10^6 cells in 6-well tissue culture plates (Costar). […] FuGENE6 reagent (Roche Cat. #11-814443001) was used according to manufacturer's protocol for the transient transfection of adherent cells. Transfected cells were reseeded onto 12 well (2×10^6 cells) and/or 96-well (5×10^4 cells) plates (Costar) 16 h post-transfection; fresh media was added either with or without gamma secretase inhibitors. The cells and conditioned media were harvested 48 h post-transfection for analysis.
Inhibitor Treatment of Transfected HEK Cell: The transition state analogue gamma secretase inhibitor-L685,458 (Sigma) and the peptidomimetic inhibitor-DAPT (Dovey, H. F., et al., J Neurochem., 2001; 76:173-181) were dissolved in DMSO to make 20 mM stocks. Similarly, a number of Elan's series of sulfonamide inhibitors were prepared and used as described herein (see, also FIGS. 11-14). Inhibitors were added to cell cultures (e.g., HEK) at the indicated final concentration, and the treated cells were harvested 48 h post-transfection. The metallo-proteinase inhibitor TAPI-1 (Calbiochem) was used at a final concentration of 40 μM. The Aβ-degrading enzyme inhibitors, Bacitracin (Calbiochem) and phosphoramidon (Calbiochem) were used at final concentration of 1 mg/ml and 40 μM, respectively. All inhibitor experiments were performed in triplicate and repeated at least three times.
Immunoprecipitation (IP) and Western Blot Detection of Aβ: Total Aβ peptides in conditioned medium or cell lysate were immuno-precipitated at 4° C. overnight with 4 μg of the 2H3 antibody, followed by incubation with 50 μl of a 50% protein G-Sepharose (GE Healthcare) slurry for 1 hr and three washes in the same lysis buffer as described above in the Western Blot discussion. Proteins were eluted from the solid-phase immunoprecipitates in Laemmli sample buffer by heating at 70° C. for 5 min and resolved on 10-20% Tris-Tricine SDS-PAGE or the modified Tris-Tricine/8M urea gels (Qi-Takahara, Y., et al., J Neurosci. (2005; 25, 436-445). After transferring onto nitrocellulose membranes (Invitrogen), the membranes were heated to 98° C. for 5 min in PBS, immunostained with the 2H3 antibody and visualized with Super-signal West Pico chemiluminescent substrate (Pierce). Each experiment was repeated at least three times.
as §1

[4] = tested on: AICD-GVP nuclear staining in COS-7 cells; experiment: Immunostaining of transfected COS-7 cells; type: cell-based; details: DAPT 5 μM, FIG. 5F
Experimental: Immunostaining: Wild type or transiently transfected COS-7 cells (ATCC) were fixed at room temperature with 2% paraformaldehyde in PBS for 20 min and subsequently permeabilized with 0.2% Triton X-100 in PBS for 10 min. […] All staining was visualized on a Bio-Rad MRC 1024ES confocal microscope (Bio-Rad) and captured with a coupled CCD camera.

[5] = transient expression in HEK cells, ELISA

In the case of `C[C@H](NC(=O)Cc1cc(F)cc(F)c1)C(=O)N[C@H](C(=O)OC(C)(C)C)c1ccccc1` [DAPT], the “γ/ε selectivity = IC50 AICD/IC50 Aβ” value [1] is reported as 0.7, the “luciferase reporter transactivation by AICD-GVP” value [2] is reported as “block luciferase reporter transactivation” and the “secreted Aβ (Ab40, Ab42, total)” value [3] is reported as “block secreted Aβ”. The “Aβ-lowering potency with C99GVP compared with native substrate APP” value ([3]; ELISA) was “equal Ab potency” and the “nuclear staining of AICD-GVP” value [4] was “abolished”.

For “S26L: C99GVP point mutant in the GSNK motif (SEQ ID NO:44) (LEDAEFRHDSGYEVHHQKLVFFAEDVGLNKGAIIGLMVGGVVIATVIVITLVML)”, the “drop of Aβ40” value ([3]; versus C99GVP control) was 52.7±2.3% and the “reduction in total Aβ” value ([3]; versus C99GVP control) was 65.7±8.5%.

gamma secretase was tested, and the “secreted Aβ” value (C99GVP-G25S) was “showed no obvious effect on secreted Aβ”, the “decrease in total Aβ and in Aβ40” value (C99GVP-K28S) was “an even more substantial (˜90%) decrease in both measurements” and the “secreted Aβ” value (C99GVP-N27S) was “showed no obvious effect on secreted Aβ”. The “drop of Aβ40” value (C99GVP-S26L) was 52.7±2.3% drop of Aβ40, the “reduction in total Aβ” value (C99GVP-S26L) was 65.7±8.5% reduction in total Aβ and the “reduction in secreted Aβ” value (C99GVP-SLSS) was “marked reduction (˜97%) in secreted Aβ”. The “Aβ secretion (western blot and Aβ40 ELISA of conditioned media)” value (C99GVP-SREBP1-gsnk) was “also maintained normal Aβ secretion”.

In the case of “N27S: C99GVP point mutant in the GSNK motif (SEQ ID NO:45) (LEDAEFRHDSGYEVHHQKLVFFAEDVGSSKGAIIGLMVGGVVIATVIVITLVML)”, the “effect on secreted Aβ / Aβ production” value ([3]; versus C99GVP control) is reported as “no obvious effect”.

“C99GVP: 99 amino acid C-terminal fragment of APP with Gal4-VP16 domain inserted (SEQ ID NO:47)” was tested, and the “Aβ42 fraction of the total Aβ” value ([3]; transient expression in HEK cells) was 15.7±2.5%, the “secreted Aβ40” value [3, 5] was 210.8 ± 19.2 pM and the “secreted Aβ42” value [3, 5] was 39.1±6.4.

In the case of `CC(C)C[C@H](NC(=O)[C@H](Cc1ccccc1)C[C@@H](O)[C@H](Cc1ccccc1)NC(=O)OC(C)(C)C)C(=O)N[C@@H](Cc1ccccc1)C(N)=O` [L-685,458, reference compound], the “γ/ε selectivity = IC50 AICD/IC50 Aβ” value [1] is reported as 1.9, the “luciferase reporter transactivation by AICD-GVP” value [2] is reported as “block luciferase reporter transactivation” and the “secreted Aβ (Ab40, Ab42, total)” value [3] is reported as “block secreted Aβ”. The “Aβ-lowering potency with C99GVP compared with native substrate APP” value ([3]; ELISA) was “equal Ab potency”.

In the case of “G25S: C99GVP point mutant in the GSNK motif (SEQ ID NO:43) (LEDAEFRHDSGYEVHHQKLVFFAEDVSSNKGAIIGLMVGGVVIATVIVITLVML)”, the “effect on secreted Aβ / Aβ production” value ([3]; versus C99GVP control) is reported as “no obvious effect”.

For “K28S: C99GVP point mutant in the GSNK motif (SEQ ID NO:46) (LEDAEFRHDSGYEVHHQKLVFFAEDVGSNSGAIIGLMVGGVVIATVIVITLVML)”, the “drop of Aβ40” value ([3]; versus C99GVP control) was roughly 90% and the “reduction in total Aβ” value ([3]; versus C99GVP control) was roughly 90%.

B1: C99GVP-SLSS: C99GVP in which the GSNK motif is substituted with SLSS from APLP2 (SEQ ID NO:51) (protein)
chain: DAEFRHDSGYEVHHQKLVFFAEDVSLSSGAIIGLMVGGVVIATVIVITLVMLKKKKLLSSIEQACDICRLKKLKCSKEKPKCAKCLKNNWECRYSPKTKRSPLTRAHLTEVESRLERLEQLFLLIFPREDLDMILKMDSLQDIKALLTGLFVQDNVNKDAVTDRLASVETDMPLTLRQHRISATSSSEESSNKGQRQLTVSGIPGDLAPPTDVSLGDELHLDGEDVAMAHADALDDFDLDMLGDGDSPGPGFTPHDSAPYGALDMADFEFEQMFTDALGIDEYGGQYTSIHHGVVEVDAAVTPEERHLSKMQQNGYENPTYKFFEQMQN
For B1, the “reduction in secreted Aβ” value ([3]; versus C99GVP control, FIG. 9B and 9C) was roughly 97%.
